Patent US7279149B2, “Amino acid composition with increased blood brain barrier permeability” (Mayo Foundation for Medical Education and Research, priority 2003, dated 2007)

Legend:
[1] = target: T1, amyloid plaques in APP, PS1 transgenic mouse brain (Homo sapiens, UniProt P05067); assay: Labeling of amyloid plaques in APP, PS1 transgenic mouse brain in vivo after IV injection; conditions: 21-month old APP, PS1 mice, 750 μg IV, four hours
T1 construct: from tissue; host or cells: brain of APP (Tg2576) x PS1 (M146L6.2) double transgenic mice
Procedure: a. Subjects. These evaluations were performed using transgenic mice that express two mutant human proteins associated with familial AD and have been described in detail elsewhere (Holcomb, L., et al., Nature Med. 4:97–100, 1998). Hemizygous transgenic mice (Tg2576) expressing mutant human amyloid precursor protein (APP695) (Hsiao, K., et al., Science 274:99–102, 1996) were mated with a second strain of hemizygous transgenic mice (M146L6.2) expressing mutant human presenilin 1 (PS1) (Holcomb, L., et al., supra, 1998). The animals were genotyped for the expression of both transgenes by a PCR method using a sample of mouse-tail DNA. […]
g. […] Silver grains from sections exposed for 6 days and 2 weeks were quantitated using unbiased, stereological techniques. Sections exposed for 4 or 8 weeks were somewhat overexposed such that over many of the plaques the exposed silver grains had become confluent could not be counted accurately. Silver grains were counted over plaques in three sections from each animal in the retrosplenial cortex and CA1 region of the hippocampus using a 10-μm×10-μm dissector at 400×. The mean background level of exposed silver grains was also determined for each section. The results were expressed as the mean number of silver grains/100 μm^2 minus the background. […]

[2] = target: T2, amyloid plaques in APP, PS1 mice (Homo sapiens, UniProt P05067); conditions: 200 μg, PS1 mice at 27 weeks of age (Wengenack 2000); cited from earlier work
T2 construct: host or cells: APP, PS1 mouse brain (earlier studies: Wengenack 2000; Poduslo 2002)

[3] = target: T3, amyloid plaques in APP, PS1 mouse brain sections (Homo sapiens, UniProt P05067); assay: Labeling of amyloid plaques in APP, PS1 transgenic mouse brain sections in vitro; type: binding
T3 construct: from tissue; host or cells: brain of APP (Tg2576) x PS1 (M146L6.2) double transgenic mice
Procedure: f. Labeling of Amyloid Plaques in Human AD and APP, PS1 Mouse Brain Sections In Vitro with Diamine- and Gadolinium-Substituted Aβ30 Peptides. HPLC-purified ^125I-Aβ40, ^125I-Aβ30, ^125I-[N-4ab/Q-4ab]Aβ30, ^125I-Gd[N-4ab/Q-4ab]Aβ30, or buffer was incubated with sections of unfixed AD temporal lobe cortex using the same procedure we used previously (Wengenack, T. M., et al., Neuroscience 101:939–944, 2000). Briefly, the 15 μm-sections were incubated for 3 hours at RT with 100 pM radioiodinated peptide or alone in 250 μl of TBS (50 mM Tris HCl, 138 mM sodium chloride, pH 7.0) containing 0.1% BSA, 0.6 mg/ml magnesium chloride, 0.04 mg/ml bacitracin, 0.002 mg/ml chymostatin, and 0.004 mg/ml leupeptin. The sections then underwent immunohistochemistry (IH) for amyloid using an anti-Aβ monoclonal mouse antibody (4G8, 1:1000, Signet Laboratories, Dedham, Mass.). Next, the sections were dipped in an autoradiographic emulsion (Type NTB-3, Kodak, Rochester, N.Y.) for direct comparison of ^125I-labeled amyloid deposits to anti-Aβ IH. The slides were dipped in emulsion, exposed for various durations, and developed according to the instructions. The sections were dehydrated with successive changes of ethanol and xylene and then coverslipped. […]

[4] = test system: amyloid plaques in human AD temporal lobe cortex sections; assay: Labeling of amyloid plaques in human AD brain sections in vitro (emulsion autoradiography); type: binding
Procedure: f. Labeling of Amyloid Plaques in Human AD and APP, PS1 Mouse Brain Sections In Vitro with Diamine- and Gadolinium-Substituted Aβ30 Peptides. HPLC-purified ^125I-Aβ40, ^125I-Aβ30, ^125I-[N-4ab/Q-4ab]Aβ30, ^125I-Gd[N-4ab/Q-4ab]Aβ30, or buffer was incubated with sections of unfixed AD temporal lobe cortex using the same procedure we used previously (Wengenack, T. M., et al., Neuroscience 101:939–944, 2000). Briefly, the 15 μm-sections were incubated for 3 hours at RT with 100 pM radioiodinated peptide or alone in 250 μl of TBS (50 mM Tris HCl, 138 mM sodium chloride, pH 7.0) containing 0.1% BSA, 0.6 mg/ml magnesium chloride, 0.04 mg/ml bacitracin, 0.002 mg/ml chymostatin, and 0.004 mg/ml leupeptin. The sections then underwent immunohistochemistry (IH) for amyloid using an anti-Aβ monoclonal mouse antibody (4G8, 1:1000, Signet Laboratories, Dedham, Mass.). Next, the sections were dipped in an autoradiographic emulsion (Type NTB-3, Kodak, Rochester, N.Y.) for direct comparison of ^125I-labeled amyloid deposits to anti-Aβ IH. The slides were dipped in emulsion, exposed for various durations, and developed according to the instructions. The sections were dehydrated with successive changes of ethanol and xylene and then coverslipped.

[5] = target: T4, amyloid plaques in APP, PS1 mouse brain (Homo sapiens, UniProt P05067); conditions: PS1 mouse brains ex vivo following IV injection (Poduslo 2002); cited from earlier work
T4 construct: host or cells: APP, PS1 mouse brain (earlier studies: Wengenack 2000; Poduslo 2002)
T4 sequence (P05067 672-711 limits assumed): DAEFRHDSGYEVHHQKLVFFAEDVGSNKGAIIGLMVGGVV

T3 sequence (P05067 672-711 limits assumed): as above
T1 sequence (P05067 672-711 limits assumed): as above
T2 sequence (P05067 672-711 limits assumed): as above

| Substance | labeling of plaques in vivo [1] | labeling of plaques in vivo, previous study [2] | labeling of neuritic plaques ([3]; 100 pM, unfixed APP) | duration of exposure to achieve a detectable amount of silver grains ([3]; APP, equal amounts of peptide) | labeling of neuritic plaques ([4]; 100 pM radioiodinated peptide, 3 hours at RT, unfixed human AD temporal lobe cortex sections) | labeling of small amyloid deposits ([4]; 100 pM radioiodinated peptide, human AD sections) | exposure time required to detect exposed silver grains ([4]; human AD sections, equal amounts of peptide (100 pM)) | contrast enhancement of plaques during MRI [5] |
| --- | --- | --- | --- | --- | --- | --- | --- | --- |
| Aβ40: human amyloid-β peptide Aβ40, radioiodinated; served as a positive control | also labeled plaques in vivo | did not label plaques | labeled most of the neuritic plaques | one | labeled most dense-core, neuritic type plaques | labeled only a few | 7 days | – |
| Gd-Aβ40: Gd-DTPA substituted Aβ40 of a previous study | – | – | – | – | – | – | – | not to provide contrast enhancement of plaques |
| (PUT-)Gd-Aβ40: polyamine (putrescine)-modified Gd-Aβ40 of a previous study | – | – | – | – | – | – | – | provide contrast enhancement of plaques |
